This data set in a line: yeast display, Sf9 membrane polyspecificity reagent, FACS + sequencing; frameworks hold sequencing errors. The procedure, abridged: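 Sorting gates, low and high (top ~1%), were placed on anti-HA fluorescence to track expression and on streptavidin fluorescence to track reagent binding. A clone's polyreactivity label is taken from the gate it came out of. The reagent was 10% biotinylated, detergent-solubilized Sf9 membrane, applied for 1 hour at 4 °C to galactose-induced yeast display cells.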
For the sequence “QVQLVESGGGLVQAGGSLRLSCAASGIIFYFYAMGWYRQAPGKERELVAAITSSGGSTYYADSVKGRFTISRDNAKNTVYLQMNSLKPEDTAVYYCAADSLHGRKFRGVDYWGQGTQVTVSS”, the “polyreactivity (PSR sort gate)” value is reported as “low polyreactivity”. As for “QVQLVESGGGLVQAGGSLRLSCAASGIIFYGNTLGWYRQAPGKERELVAGIDFSDDSTNYADSVKGRFTISRDNAKNSVYLLRNSLKPEDTAVYYCAADTRSPSAQEVDYWGQGTQVTVSS”, the entry is “low polyreactivity”; as for “QVQLVESGGGLVQAGGSLRLSCAASGIIFYGYVMGWYRQAPGKERELVATITSSGGSTYYADSVKGRFTISRDNAKNSVYLQMNSLKPEDTAVYYCAADYYYGAWVRHDYWGQGTQVTVSS”, “low polyreactivity”; as for “QVQLVESGGGLVQAGGSLRLSCAASGIIFYHYPMGWYRQAPGKERELVAAITGSGIRTYYADSVKGRFTISRDNAMNTVYLQMNSLKPEDTAVYYCGAQQRYWSTYGYWGQGTQVTVSS”, “high polyreactivity”.

Consider “QVQLVESGGGLVQAGGSLRLSCAASGIIFYIYTMGWYRQAPGKERELVAAINRSGSRTYYADSVKGRFTISRDYAKNNVYLQMNSLKPEDTAVYYCAAGTGSRDDYWGQGTQVTVST”, for which the “polyreactivity (PSR sort gate)” value is “high polyreactivity”.

Consider “QVQLVESGGGLVQAGGSLRLSCAASGIIFYKNAMGWYRQAPGKERELVAAISGSGGRTYYADSVKGRFTISRDNAKKTVYLQMNSLKPEDTAVYYCAARKPYRHGYESWGQGTQVTVSS”, for which the “polyreactivity (PSR sort gate)” value is given as “high polyreactivity”. Turning to “QVQLVESGGGLVQAGGSLRLSCAASGIIFYKYAMGWKRQGPGKERELVAAITSGGRRTYYADSVKGRFTISRDNAKNTVYLLMNSLKPEDTEAFYCAARFSYPWLYLFVYWGQVTQVTVSS”, the “polyreactivity (PSR sort gate)” value was “high polyreactivity”. The same measure for “QVQLVESGGGLVQAGGSLRLSCAASGIIFYKYAMGWYRQAPGKERELVAAITSGGGRTYYADSVKGRFTISRDNAKNTVYLQMNSLKPEDTAVYYCAATRPATYAAYDYWGQGTQVTVSS”: “high polyreactivity”; for “QVQLVESGGGLVQAGGSLRLSCAASGIIFYLNAMGWYRQAPGKERELVAAISNGTSTNYADSVKGRFTISRDNAKNTVYLQMNSLKPEDTAVFYCAADDLRYNSRSSNYRGDYWGQGTQVTVSS”: “low polyreactivity”.

With “QVQLVESGGGLVQAGGSLRLSCAASGIIFYLNAMGWYRQAPGKERELVAGITYSGGSTYYADSVKGRFTISRDNAKNTVYLQMNSLKPEDTAVYYCAARTKWYIFLYDYWGQGTQVTVSS”, the “polyreactivity (PSR sort gate)” value is “low polyreactivity”. As for “QVQLVESGGGLVQAGGSLRLSCAASGIIFYPNAMGWYRQAPGKERELVAAITSDGSTYYADSVKGRFTISRDNAKNTVYLQMNSLKPEDTAVYYCAAWDDYGYDYWGQGTQVTVSS”, the “polyreactivity (PSR sort gate)” value is “low polyreactivity”. As for “QVQLVESGGGLVQAGGSLRLSCAASGIIFYRNAMGWYRQAPGKERELVAAISKGGGSTYYADSVKGRFTISRDNAKNTVYLQMNSLKPEDTAVYYCAAKAYTYYARIGFDYWGQGTQVTVSS”, the entry is “high polyreactivity”.

As to “QVQLVESGGGLVQAGGSLRLSCAASGIIFYRNAMGWYRQAPGNERELVAAITSSGGRTYYADSVKGRFTISRDNAKNTVYLQMNSLKPEDTPVYYCAATRLYWKIFYGDGDYWGQGTQVTVSS”, the “polyreactivity (PSR sort gate)” value is “high polyreactivity”. As to “QVQLVESGGGLVQAGGSLRLSCAASGIIFYRNTMGWYRQAPGKERELVAAIRRGGNTYYADSVKGRFTISRDNAKNTVYLQMNSLKPEDTAVYYCAASAGPRASYYYWGQGTQVTVSS”, the “polyreactivity (PSR sort gate)” value is reported as “high polyreactivity”. Take “QVQLVESGGGLVQAGGSLRLSCAASGIIFYRYTMGWYRQAPGKERELVAAISSRGGSTYYADSVKGRFTISRDNAKNTVYLQMNSLKPEDTAVYYWNARSKRTARYNYWGQGTQVTVSS”: the “polyreactivity (PSR sort gate)” value is “high polyreactivity”. As for “QVQLVESGGGLVQAGGSLRLSCAASGIIFYRYTMGWYRQAPGKERELVAAITSGGDTNYADSVKGRFTISRDNAKNTVYLQMNSLKPEDTAVYYCNADWWWYLYLYDYWGQGTQVTVSS”, the entry is “high polyreactivity”; as for “QVQLVESGGGLVQAGGSLRLSCAASGIIFYVYAMGWYRQAPVKERELVAAISDTAGDTYYADSVKGRFTISRDNAKNTVYLQMNSLKPEDTAVYYCATDWFSYRGGIFDSWGQGTQVTVSS”, “low polyreactivity”; as for “QVQLVESGGGLVQAGGSLRLSCAASGIIFYYNAMGWNRKAPGKERELVAAISQRGSSTYYADSVKGRFTISRDNAQNTVYLQMNSLKPEDTAVYYCAKRFIYGRYNYWGQGTQVTVSS”, “high polyreactivity”. The same measure for “QVQLVESGGGLVQAGGSLRLSCAASGIIFYYNAMGWYRQAPGKERELVAAISSSGGSTSYADSVKGRFTISRDNAKNTVYLQMNSLKPEDTAVYYCAADSSPAYLGFVGFDYWGQGTQVTVSS”: “low polyreactivity”; for “QVQLVESGGGLVQAGGSLRLSCAASGIIFYYNAMGWYRQAPGKERELVATIRWRGGSTYYADSVKGRFTISRDNAKNTVYLQMNSLKPEDTAVYYCNKSYDNSSDSDYWGQGTQVTVSS”: “low polyreactivity”; for “QVQLVESGGGLVQAGGSLRLSCAASGIIFYYNAMGWYRQAPGKEREYVASISSRGGSTYYADSVKGRFTISRDNAKNTVYLQMKSLKPEDPAVYYCAAAFDWRRQRYNYWGHGTQVTVSS”: “high polyreactivity”. As for “QVQLVESGGGLVQAGGSLRLSCAASGIIIDSNAMGWYRQAPGKERELVAAITSGGSTKYADSVKGRFTISRDNAKNTVYLQMNSLKPEDTAVYYCAAGGSYYRDDYWGQGTQVTVSS”, the entry is “low polyreactivity”; as for “QVQLVESGGGLVQAGGSLRLSCAASGIIIDSNAMGWYRQAPGKERELVAAITSGGSTKYADSVKGRFTISRDNAKNTVYLQMNSLKPEDTAVYYCNADFRQADQCSYFYEMDSWGQGTQVTVSS”, “low polyreactivity”; as for “QVQLVESGGGLVQAGGSLRLSCAASGIIIGSNAMGWYRQAPGKERELVAAISDSGGSTYYADSVKGRFTISRDNAKNTVYLQMNSLKPEDTAVYYCAAAGRGSWTTYRFDYWGQGTQVTVSS”, “high polyreactivity”. For the sequence “QVQLVESGGGLVQAGGSLRLSCAASGIIISVYALGWYRQAPGKERELVATISLSSGRTYYADSVKGRFTISRDNAKNTVYFQMNCLKPEDTAVYYCNAGGRTASRRYYWGQGTQVTVSS”, the “polyreactivity (PSR sort gate)” value is “low polyreactivity”. As for “QVQLVESGGGLVQAGGSLRLSCAASGIILDEYAMGWYRQAPGKERELVAAITWIGGSTYADSVKGRFTISRDNAKNTVYLQMNSLKPEDTAVYYCAADYPSLYVWYGYGWYKYDYWGQGTQVTVSS”, the entry is “low polyreactivity”; as for “QVQLVESGGGLVQAGGSLRLSCAASGIILDHYAMGWYRQAPGKERELVAAISSGTRTNYADSVKGRFSISRDNAKHTVSLQMNSLKPEDTAVYNCAATIYRRYRSKYSITSYWGQGTQVTVSS”, “high polyreactivity”. Consider “QVQLVESGGGLVQAGGSLRLSCAASGIILDHYAMGWYRQAPGKERELVAAISSGTRTNYADSVKGRFTISRDNAKNTVYLQMNSLKPEDTAVYYCAATIYRRYRSKSSITSYWGQGTQVTVSS”, for which the “polyreactivity (PSR sort gate)” value was “high polyreactivity”. The same measure for “QVQLVESGGGLVQAGGSLRLSCAASGIILDRNAMGWYRQAPGKERELVAAINSIGGSTYYADSVKGRFTISRDNAKKTVYLQMNSLKPEDTAVYYCAAPSTSSYYWGQGTQVTVSS”: “low polyreactivity”; for “QVQLVESGGGLVQAGGSLRLSCAASGIILFRYAMGWYRQAPGKERELVAAISWSGGSTYYADSVKGRFTISRDNAMNTVYLQMNCLKPEDTAVYYCAADHKYYGFGEVDYWGQGNQVTVSS”: “high polyreactivity”. As for “QVQLVESGGGLVQAGGSLRLSCAASGIILHYYAMGWYRQAPGKERELVAAISARGGRTYYADSVKGRFTISRDNAKNTVYLQMNSLKPEDTAVYYCARYLRRSSPSPGYGYWGQGTQVTVSS”, the entry is “high polyreactivity”.

Regarding “QVQLVESGGGLVQAGGSLRLSCAASGIILLRYTMGWYRQAPGKERELVAAISRSAGRTYYADSVKGRFTISRDNAKNTVYLQMNSLKPEDTAVYYCNKASWYNGEIDYWGQVTQVTVSS”, the “polyreactivity (PSR sort gate)” value is “high polyreactivity”. As for “QVQLVESGGGLVQAGGSLRLSCAASGIILPYYVMGWYRQAPGKERELVAAISSGGRTYYADSVKGRFTISRDNAKNTVYLQMNSLKPEDTAVYYCNAYFTGKWYDYWGQGTQVTVSS”, the “polyreactivity (PSR sort gate)” value was “high polyreactivity”. As to “QVQLVESGGGLVQAGGSLRLSCAASGIILRRYAMGWYRQAPGKERELVARISYRGGRTNYADSVKGRFTISRDNAKNTVYLQMNSLKPEDTAVYYCAAVAWYYHEGTAYNYWGQGTQVTVSS”, the “polyreactivity (PSR sort gate)” value is listed as “high polyreactivity”. As to “QVQLVESGGGLVQAGGSLRLSCAASGIILRYYAMGWYRQAPGKERELVAAITRGGSTNYADSVKGRFTISRDNAKNTVYLQMNSLKPEDTAVYYCAADVVFWFSNVAWGDFGYWGQGTQVTVSS”, the “polyreactivity (PSR sort gate)” value is “low polyreactivity”. As for “QVQLVESGGGLVQAGGSLRLSCAASGIILSDYAMGWYRPAPGKERELVAAITSGGGSTYYADSVKGRFTISRDNAKNTVYLQMNSLNPEDTAVYFCAADLTSYYGGDYWGQGTQVTVSS”, the “polyreactivity (PSR sort gate)” value was “low polyreactivity”. With “QVQLVESGGGLVQAGGSLRLSCAASGIILSYYVMGWYRQAPGKERELVAAISLRGGSRTYYADSVNGRFTISRDNAKNTVYLQMNSLKPEDTAVYYCAKLRWVYGRQTLMDYWGQGTQVTVSS”, the “polyreactivity (PSR sort gate)” value is reported as “high polyreactivity”.

For the sequence “QVQLVESGGGLVQAGGSLRLSCAASGIILTVYAMGWYRQAPGKERELVATISRRGGNTYYADSVKGRFTISRDNAKNTVYLQMNSLKPEDTAVYYCNKAYQYGGYYYWGQGTQVTVSS”, the “polyreactivity (PSR sort gate)” value is “high polyreactivity”.

“QVQLVESGGGLVQAGGSLRLSCAASGIILVYNAMGWYRQAPGKERELVAAISSSGGTTYYADSVKGRFTISRDNAKNTVYLQMNSLKPEDTAVYYCNAALPVTRSERYGSDYWGQGTQVTVSS”: the “polyreactivity (PSR sort gate)” value was “low polyreactivity”. In the case of “QVQLVESGGGLVQAGGSLRLSCAASGIILYGYDMGWYRQAPGKERELVAAISSSGGSTYYADSVKGRFTISRDNAKNTVYLQMNSLKPEDTAVYYCAASKRYYGQLLTGGYYGYYYCGQGTQVTVSS”, the “polyreactivity (PSR sort gate)” value is “high polyreactivity”.

Turning to “QVQLVESGGGLVQAGGSLRLSCAASGIILYVNAMGWYRQAPGKEREFVAAISWGGGSTYYADSVKGRFTISRDNAKNTVYLQMNSLKPEDTAVYYCAAEFWSGYPTYTYDYWGQGTQVTVSS”, the “polyreactivity (PSR sort gate)” value is on record as “low polyreactivity”.

For the origin of these results see the nanobody polyreactivity screen of Harvey et al. (2022).
